Where a chain is given by its changes, count along the chain named.
Experiments:
[1] = biological target: T1, human VLA-1 (alpha 1/beta 1, CD49a/CD29) on IL-2 stimulated human PBMC / T cells (human, UniProt P56199 29-1179; P05556 21-798); experiment: cell-based or functional assay
[2] = biological target: T2, human VLA-1 α1 subunit (CD49a), full-length, on transfected CHO cells (human, UniProt P56199 29-1179); experiment: cell-based or functional assay
[3] = biological target: T1, human VLA-1 (alpha 1/beta 1, …); experiment: cell-based or functional assay; remark: listed apart in the source
[4] = biological target: T1, human VLA-1 (alpha 1/beta 1, …); experiment: cell-based or functional assay; remark: listed apart in the source
[5] = biological target: T3, human CD49a I domain S162H (human, UniProt P56199 151-364, S162H); experiment: ELISA on secreted mutant I domain
T3 construct: domain: I domain; not shown: myc and His tags

[6] = biological target: T4, human CD49a I domain E66A (human, UniProt P56199 151-364, E66A); experiment: ELISA on secreted mutant I domain
T4 construct: domain: I domain; not shown: myc and His tags

[7] = biological target: T5, human CD49a I domain E48K (human, UniProt P56199 151-364, E48K); experiment: ELISA on secreted mutant I domain
T5 construct: domain: I domain; not shown: myc and His tags

[8] = biological target: T6, human CD49a I domain K88N (human, UniProt P56199 151-364, K88N); experiment: ELISA on secreted mutant I domain
T6 construct: domain: I domain; not shown: myc and His tags

[9] = biological target: T7, human CD49a I domain with residues 91-96 VQRGGR replaced by mouse GRRGGL (human, UniProt P56199 151-364, V91G; Q92R; R96L); experiment: ELISA on secreted mutant I domain
T7 construct: domain: I domain; also called V91G, Q92R, R96L; not shown: myc and His tags

[10] = biological target: T8, human CD49a I domain I11F (human, UniProt P56199 151-364, I11F); experiment: ELISA on secreted mutant I domain
T8 construct: domain: I domain; not shown: myc and His tags

[11] = biological target: T9, human CD49a I domain K142Q (human, UniProt P56199 151-364, K142Q); experiment: ELISA on secreted mutant I domain
T9 construct: domain: I domain; text prints KI42Q once; not shown: myc and His tags

[12] = biological target: T10, human CD49a I domain T204A (human, UniProt P56199 151-364, T204A); experiment: ELISA on secreted mutant I domain
T10 construct: domain: I domain; not shown: myc and His tags

[13] = biological target: T2, human VLA-1 α1 subunit (CD49a), …; experiment: cell-based or functional assay; remark: listed apart in the source
[14] = biological target: T1, human VLA-1 (alpha 1/beta 1, …); experiment: cell-based or functional assay; remark: listed apart in the source

B1: 7.11 (antibody, V domains shown)
VH: QVQLQESGPGLVKPPETLSLTCTVSGGSISSHYWSWIRQPAGKGLEWIGRIYTSGSTNYNPPLKSRVTMSVDTSKNQFSLKLSSVTAADTAVYYCAREGYDFWSGYYNYYYGMDVWGQGTTVTVS
VL: EIVLTQSPGTLSLSPGERATLSCRASQSVISSYLAWYQQKPGQAPRLLIYGASSRATGIPDRFSGSGSGTDFTLTISRLEPEDFAVYYCQQYGSAFTFGGGTKVEIK
Q: With B1 as the binder, how does the “T cell adhesion to immobilized collagen IV, relative estimated IC50” value [1] read?
A: > 5 nM

B2: 6.17 (antibody, V domains shown)
VH: EVQLVQSGAEVKKPGESLRISCKGSGYSVSSYWIGWVRQMPGKGLEWMGIIYPGDSDTRYSPSFQGQVTISADKSISTAFLQWISLKASDTAMYYCARLQGDCSGGSCYGHFDYWGQGTLVTVS
VL: EIVLTQSPGTLSLSPGERATLSCRASQTISSGYLAWYQQKPAQAPRLLIYVASRRATGIPDRFSGSGSGTDFTLTISRLEPEDFAVYYCQQYGSSSWTFGQGTTVEIK
notes: human IgG2 or IgG4
Q: What does the source list for B2?
A: relative inhibition at an optimal concentration, CHO-VLA-1 adhesion to collagen IV [2]: > 80%; % adhesion of IL-2 activated T cells to collagen IV vs no antibody, 10 µg/ml, +PMA [3]: 22.5%; % adhesion of IL-2 activated T cells to collagen IV vs no antibody, 10 µg/ml, -PMA [3]: 64.1%; % adhesion of T cells to collagen IV vs no antibody, 0.5 nM mAb, 10 ng/ml PMA [4]: 93.7%; % adhesion of T cells to collagen IV vs no antibody, 5 nM mAb, 10 ng/ml PMA [4]: 63.7%; binding result [5]: no binding; binding result [6]: binds; binding result [7]: binds; binding result [8]: binds; binding result [9]: no binding; binding result [10]: binds; binding result [11]: binds; binding result [12]: binds; IC50, adhesion of CHO-VLA-1 cells to collagen IV [13]: 0.27 nM; % adhesion of T cells to collagen IV vs no antibody, 0.5 nM mAb, no PMA [14]: 76.3%; % adhesion of T cells to collagen IV vs no antibody, 5 nM mAb, no PMA [14]: 22.3%

B3: 6.18 (antibody, V domains shown)
VH: B2 VH with S30T, F80Y, I84S, S107T
VL: B2 VL with T28S, I29V, G32S, S94T
notes: human IgG2 or IgG4
Q: What does the source list for B3?
A: relative inhibition at an optimal concentration, CHO-VLA-1 adhesion to collagen IV [2]: > 80%; % adhesion of IL-2 activated T cells to collagen IV vs no antibody, 10 µg/ml, +PMA [3]: 31.2%; % adhesion of IL-2 activated T cells to collagen IV vs no antibody, 10 µg/ml, -PMA [3]: 58.5%; % adhesion of T cells to collagen IV vs no antibody, 0.5 nM mAb, 10 ng/ml PMA [4]: 98.4%; % adhesion of T cells to collagen IV vs no antibody, 5 nM mAb, 10 ng/ml PMA [4]: 55.5%; binding result [5]: no binding; binding result [6]: binds; binding result [7]: binds; binding result [8]: binds; binding result [9]: no binding; binding result [10]: binds; binding result [11]: binds; binding result [12]: binds; IC50, adhesion of CHO-VLA-1 cells to collagen IV [13]: 0.19 nM; % adhesion of T cells to collagen IV vs no antibody, 0.5 nM mAb, no PMA [14]: 85%; % adhesion of T cells to collagen IV vs no antibody, 5 nM mAb, no PMA [14]: 19.7%

B4: 10.1 (antibody, V domains shown)
VH: QVQLQQSGPGLVKPSETLSLTCTVSGASISSYYWSWIRQPAGKGLEWIGRIYASGSTNYNPSLKSRVTMSVDTSKSQFSLNLSSVTAADTAVYYCAREGWERLQDYYYYGLDVWGQGTTVTVSS
VL: EIVLTQSPGTLSLSPGERATLSCRASQSVSRNYLAWNQQKPGQAPRLLIYGASSRATGIPDRFSGSGSGTDFTLTISRLEPEDFAVYYCQQYGSSPLTFGGGTKVEIK
Q: What does the source list for B4?
A: T cell adhesion to immobilized collagen IV, relative estimated IC50 [1]: > 5 nM; % adhesion of IL-2 activated T cells to collagen IV vs no antibody, 10 µg/ml, +PMA [3]: 38.4%; % adhesion of IL-2 activated T cells to collagen IV vs no antibody, 10 µg/ml, -PMA [3]: 40.9%; % adhesion of T cells to collagen IV vs no antibody, 0.5 nM mAb, 10 ng/ml PMA [4]: 96.7%; % adhesion of T cells to collagen IV vs no antibody, 5 nM mAb, 10 ng/ml PMA [4]: 86.8%; IC50, adhesion of CHO-VLA-1 cells to collagen IV [13]: 1 nM; % adhesion of T cells to collagen IV vs no antibody, 0.5 nM mAb, no PMA [14]: 101%; % adhesion of T cells to collagen IV vs no antibody, 5 nM mAb, no PMA [14]: 76.6%

B5: 3.40 (antibody, V domains shown)
VH: QVQLVESGGGVVQPGRSLRLSCAASGFTFSTYGMHWVRQAPGKGLEWVAVIWYDGSKKYYADSVKGRFAISRDNSKNTLYLQMNSLRAEDTAVYYCARDHTMVRGVINSYYYGMAVWGQGTTVTVSS
VL: SYELTQPPSVSVSPGQTASITCSGDRLGNKYACWYQQKTGQSPVLVIYQDSKRPSGIPERFSGSNSGNTATLTISGTQAMDEADYYCQAWDSSTVVFGGGTKLTVL
notes: human IgG2 or IgG4
Q: Which “T cell adhesion to immobilized collagen IV, relative estimated IC50” value [1] does the source give for B5 here?
A: > 5 nM

Q: Does B5 bind [5]?
A: binds

Q: Does B5 bind [6]?
A: binds

Q: Does B5 bind [7]?
A: no binding

Q: Does B5 bind [8]?
A: binds

Q: Does B5 bind [9]?
A: binds

Q: Does B5 bind [10]?
A: binds

Q: Does B5 bind [11]?
A: binds

Q: Does B5 bind [12]?
A: binds

Q: And the “IC50, adhesion of CHO-VLA-1 cells to collagen IV” value [13]?
A: 1.3 nM

B6: 2.7 (antibody, V domains shown)
VH: EVQLVESGGGLVKPGGSLRLSCAASGFTFSNAWMSWVRQAPGKGLEWVGRIKRKTDGETTDYAAPVKGRFTISRDDSRNTLYLQMNSLKTEDTAVYYCTIYTYYYGMDVWGQGTTVTVSS
VL: DIQMTQSPSSLSASVGDRVTITCRASQSINNYLNWYQQKPGKAPKLLIYAASSLESGVPSRFSGSGSGTDFTLTISSLQPEDFATYYCQQSYSTPPTFGQGTKVEIK
notes: human IgG2 or IgG4; also called antibody 2.7
Q: What does the source list for B6?
A: relative inhibition at an optimal concentration, CHO-VLA-1 adhesion to collagen IV [2]: > 80%; % adhesion of IL-2 activated T cells to collagen IV vs no antibody, 10 µg/ml, +PMA [3]: 18%; % adhesion of IL-2 activated T cells to collagen IV vs no antibody, 10 µg/ml, -PMA [3]: 30%; % adhesion of T cells to collagen IV vs no antibody, 0.5 nM mAb, 10 ng/ml PMA [4]: 85.4%; % adhesion of T cells to collagen IV vs no antibody, 5 nM mAb, 10 ng/ml PMA [4]: 34.8%; binding result [5]: binds; binding result [6]: no binding; binding result [7]: binds; binding result [8]: binds; binding result [9]: no binding; binding result [10]: binds; binding result [11]: binds; binding result [12]: binds; IC50, adhesion of CHO-VLA-1 cells to collagen IV [13]: 0.08 nM; % adhesion of T cells to collagen IV vs no antibody, 0.5 nM mAb, no PMA [14]: 33.5%; % adhesion of T cells to collagen IV vs no antibody, 5 nM mAb, no PMA [14]: 12.1%

— patent US20060286112A1 (published 2006)
